Experimental data: patent US20150037340A1 (PEIRRE FABRE MEDICAMENT, published 2015)

What was measured:
[1] = molecular target: T1, human protein Axl (cellular form on the cell surface) (human, UniProt P30530 26-894); test: flow cytometry on MDA-MB-231 cells, goat anti-mouse Alexa 488
T1 construct: also called Axl receptor; membrane Axl receptor
T1 sequence: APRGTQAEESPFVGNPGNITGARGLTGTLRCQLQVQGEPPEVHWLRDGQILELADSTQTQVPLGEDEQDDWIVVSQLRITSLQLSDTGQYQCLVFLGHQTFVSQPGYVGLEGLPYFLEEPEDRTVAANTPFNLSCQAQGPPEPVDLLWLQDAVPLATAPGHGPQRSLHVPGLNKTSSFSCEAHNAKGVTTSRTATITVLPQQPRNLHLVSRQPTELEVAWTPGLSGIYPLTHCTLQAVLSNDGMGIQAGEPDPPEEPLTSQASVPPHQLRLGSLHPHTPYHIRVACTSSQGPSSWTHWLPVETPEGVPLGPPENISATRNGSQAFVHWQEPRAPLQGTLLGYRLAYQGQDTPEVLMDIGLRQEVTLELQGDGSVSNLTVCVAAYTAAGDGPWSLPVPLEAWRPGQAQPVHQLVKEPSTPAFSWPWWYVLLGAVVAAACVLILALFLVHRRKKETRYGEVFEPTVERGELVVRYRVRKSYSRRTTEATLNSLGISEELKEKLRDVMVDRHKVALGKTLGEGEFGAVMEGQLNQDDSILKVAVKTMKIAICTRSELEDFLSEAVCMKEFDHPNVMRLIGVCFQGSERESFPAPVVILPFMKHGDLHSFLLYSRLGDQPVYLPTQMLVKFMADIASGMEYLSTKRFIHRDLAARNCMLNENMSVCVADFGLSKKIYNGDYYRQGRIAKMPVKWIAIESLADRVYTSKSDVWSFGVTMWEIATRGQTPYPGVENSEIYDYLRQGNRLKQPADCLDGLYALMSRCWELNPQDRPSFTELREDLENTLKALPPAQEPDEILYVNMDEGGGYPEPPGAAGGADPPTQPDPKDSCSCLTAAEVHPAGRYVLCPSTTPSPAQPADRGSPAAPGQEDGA
Method: (§1) For cell surface binding studies, two fold serial dilutions of a 10 μg/m (6.66 10⁻⁸ M) primary antibody solution (1613F12, MAB154 antibody or mIgG1 isotype control 9G4 Mab) are prepared and are applied on 2.10⁵ cells for 20 min at 4° C. After 3 washes in phosphate-buffered saline (PBS) supplemented with 1% BSA and 0.01% NaN₃, cells were incubated with secondary antibody Goat anti-mouse Alexa 488 (1/500° dilution) for 20 minutes at 4° C. After 3 additional washes in PBS supplemented with 1% BSA and 0.1% NaN₃, cells were analyzed by FACS (Facscalibur, Becton-Dickinson). At least 5000 cells were assessed to calculate the mean value of fluorescence intensity.

[2] = molecular target: T2, recombinant human Axl-Fc (R and D Systems, cat No 154-AL / 154AL/CF) (human, UniProt P30530 26-451); test: ELISA on coated rhAxl-Fc, detection with goat anti-mouse IgG-HRP
T2 construct: Bought protein; also called rhAxl-Fc; rh Axl-Fc protein; not shown: human IgG Fc portion (detected with anti-human IgG Fc)
T2 sequence: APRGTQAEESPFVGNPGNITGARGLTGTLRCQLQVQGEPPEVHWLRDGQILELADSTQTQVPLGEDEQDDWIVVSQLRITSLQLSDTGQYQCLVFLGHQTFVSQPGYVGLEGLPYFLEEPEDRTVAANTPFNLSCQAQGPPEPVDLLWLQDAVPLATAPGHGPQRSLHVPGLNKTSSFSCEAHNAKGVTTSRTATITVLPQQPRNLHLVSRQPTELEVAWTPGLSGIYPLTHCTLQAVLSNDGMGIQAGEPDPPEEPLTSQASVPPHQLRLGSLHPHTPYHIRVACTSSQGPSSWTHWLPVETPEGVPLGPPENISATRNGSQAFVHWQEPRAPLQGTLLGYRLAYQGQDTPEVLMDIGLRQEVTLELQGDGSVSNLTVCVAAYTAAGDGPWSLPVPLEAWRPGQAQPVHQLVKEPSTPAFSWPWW
Method: Then ½ serial dilutions were done over 12 columns. Plates were washed and a goat anti-mouse (Jackson) specific IgG-HRP was added for 1 h at 37° C. Reaction development was performed using the TMB substrate solution. […] Coating controls were performed in presence of a goat anti-human IgG Fc polyclonal serum labelled with HRP (Jackson, ref 109-035-098) and/or in presence of a HRP-coupled anti-Histidine antibody (R and D Systems, ref: MAB050H). Results are represented in FIGS. 2A, 2B and 2C, respectively.

[3] = molecular target: T1, human protein Axl (cellular form on the …); test: flow cytometry on SN12C cells, goat anti-mouse Alexa 488
Method: as §1

[4] = molecular target: T1, human protein Axl (cellular form on the …); test: flow cytometry on SN12C cells, anti-mouse IgG Alexa488; table under the graph, unit from the axis Log [M]
Method: Cells were detached using trypsin and cell concentration was adjusted at 1×10⁶ cells/ml in FACS buffer. A volume of 100 μL of cell suspension was incubated with increasing concentrations of either isotype controls or anti-Axl antibodies for 20 min. at 4° C. Cells were then washed three times with FACS buffer and incubated for 20 min. more using either anti-mouse IgG Alexa488 secondary antibody or anti-human IgG Alexa488 secondary antibody at 4° C. in the dark. Cells were washed three times with FACS buffer and resuspended with 100 μl of FACS buffer before adding propidium iodide.

B1: 1613F12 antibody (murine form) (antibody, V domains shown)
VH: EVHLQQSGAELVKPGASVKLSCTASGFNIRDTYIHWVKQRPEQGLEWIGRLDPANGHTKYGPNFQGRATMTSDTSSNTAYLQLSSLTSEDTAVYYCARGAYYYGSSGLFYFDYWGQGTTLSVSS
VL: DVQITQSPSYLATSPGETITINCRASKSISKYLAWYQEKPGKTNKLLIYSGSTLQSGVPSRFSGSGSGTDFTLTISSLEPEDFAMYFCQQHHEYPLTFGAGTELELK
notes: Whole murine monoclonal antibody purified from a hybridoma; a murine IgG1 (9G4) serves as its isotype control; also called m1613F12; monoclonal antibody 1613F12 derived from the hybridoma I-4505
[1]
  EC50 (read off the curve): ~1 nM
[2]
  EC50 (read off the curve): ~1 nM
[3]
  EC50 (read off the curve): ~1 nM
[4]
  EC50: 2.16 nM
